Biological target: C276A USP2 catalytic core (inactive active-site mutant) (human) (UniProt O75604)
Assay: stopped-flow fluorescence

C276A USP2 catalytic core (inactive active-site mutant) (human), sequence (O75604 259-605 C276A): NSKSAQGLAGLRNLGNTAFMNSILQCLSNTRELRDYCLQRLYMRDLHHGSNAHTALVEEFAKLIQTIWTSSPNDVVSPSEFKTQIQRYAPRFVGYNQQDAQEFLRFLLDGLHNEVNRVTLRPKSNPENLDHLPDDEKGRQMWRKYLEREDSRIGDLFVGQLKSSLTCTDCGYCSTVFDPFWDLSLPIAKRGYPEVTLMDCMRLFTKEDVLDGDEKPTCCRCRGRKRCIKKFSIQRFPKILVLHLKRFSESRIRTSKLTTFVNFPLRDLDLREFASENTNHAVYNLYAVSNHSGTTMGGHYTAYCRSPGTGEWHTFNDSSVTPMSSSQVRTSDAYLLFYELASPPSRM

native K48-linked diubiquitin (from UniProt P0CG48 1-76)
k1 (first step, association): 230000 M⁻¹ s⁻¹
k−1 (first step, dissociation): 0.06 s⁻¹
